Laboratory results reported in PMC5319863 (Nature, 2016).
Numbering of substitutions follows the chain as printed. Numbers in names are those of the source.

Legend:
[1] = molecular target: T1, human Izumo1_(22-254), wild type (human, UniProt Q8IYV9-1 22-254); test: BLI
[2] = molecular target: T1, human Izumo1_(22-254), wild type; test: SPR
R160A Izumo1_(22-254) = R160A Izumo1_(22-254) (human, UniProt Q8IYV9-1 22-254, R160A); test: BLI
R160E Izumo1_(22-254) = R160E Izumo1_(22-254) (human, UniProt Q8IYV9-1 22-254, R160E); test: BLI
Chain of R160E Izumo1_(22-254) (Q8IYV9 22-254 R160E): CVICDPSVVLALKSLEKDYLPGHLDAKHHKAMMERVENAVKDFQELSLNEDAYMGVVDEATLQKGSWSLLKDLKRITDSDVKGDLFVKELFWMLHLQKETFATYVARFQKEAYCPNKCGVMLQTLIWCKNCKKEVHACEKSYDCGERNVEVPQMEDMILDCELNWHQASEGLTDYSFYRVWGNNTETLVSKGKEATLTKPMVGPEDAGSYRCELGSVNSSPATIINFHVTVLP

E71A Izumo1_(22-254) = E71A Izumo1_(22-254) (human, UniProt Q8IYV9-1 22-254, E71A); test: BLI
Chain of E71A Izumo1_(22-254) (Q8IYV9 22-254 E71A): as the sequence (Q8IYV9 22-254 R160E) above, with E50A, E139R counted along it

E71K Izumo1_(22-254) = E71K Izumo1_(22-254) (human, UniProt Q8IYV9-1 22-254, E71K); test: BLI
Chain of E71K Izumo1_(22-254) (Q8IYV9 22-254 E71K): as the sequence (Q8IYV9 22-254 R160E) above, with E50K, E139R counted along it

D72A Izumo1_(22-254) = D72A Izumo1_(22-254) (human, UniProt Q8IYV9-1 22-254, D72A); test: BLI
Chain of D72A Izumo1_(22-254) (Q8IYV9 22-254 D72A): as the sequence (Q8IYV9 22-254 R160E) above, with D51A, E139R counted along it

Q130A Izumo1_(22-254) = Q130A Izumo1_(22-254) (human, UniProt Q8IYV9-1 22-254, Q130A); test: BLI
Chain of Q130A Izumo1_(22-254) (Q8IYV9 22-254 Q130A): as the sequence (Q8IYV9 22-254 R160E) above, with Q109A, E139R counted along it

H157A Izumo1_(22-254) = H157A Izumo1_(22-254) (human, UniProt Q8IYV9-1 22-254, H157A); test: BLI
Chain of H157A Izumo1_(22-254) (Q8IYV9 22-254 H157A): as the sequence (Q8IYV9 22-254 R160E) above, with H136A, E139R counted along it

Chain of R160A Izumo1_(22-254) (Q8IYV9 22-254 R160A): as the sequence (Q8IYV9 22-254 R160E) above, with E139A counted along it
T1 sequence (Q8IYV9 22-254): as the sequence (Q8IYV9 22-254 R160E) above, with E139R counted along it

B1: E45A Juno_(20-228) (domain or fragment, human, UniProt A6ND01-1 20-228, looked up)
chain: GDELLNICMNAKHHKRVPSPEDKLYAECIPWKDNACCTLTTSWEAHLDVSPLYNFSLFHCGLLMPGCRKHFIQAICFYECSPNLGPWIQPVGSLGWEVAPSGQGERVVNVPLCQEDCEEWWEDCRMSYTCKSNWRGGWDWSQGKNRCPKGAQCLPFSHYFPTPADLCEKTWSNSFKASPERRNSGRCLQKWFEPAQGNPNVAVARLFAS
modifications: biotinylated with the EZ link sulfo-NHS-LC-biotinylation kit (BLI)
Kd [1]: 681 nM
koff [1]: 0.0247 s⁻¹
kon [1]: 37000 M⁻¹ s⁻¹

B2: K163E Juno_(20-228) (domain or fragment, human, UniProt A6ND01-1 20-228, looked up)
chain: B1 chain with A26E, K144E
modifications: biotinylated with the EZ link sulfo-NHS-LC-biotinylation kit (in the BLI assay only)
Kd [1]: 134 nM
koff [1]: 0.0242 s⁻¹
kon [1]: 181000 M⁻¹ s⁻¹

B3: human Juno_(20-228), wild type (domain or fragment, UniProt A6ND01-1 20-228, looked up)
chain: B1 chain with A26E
modifications: biotinylated with the EZ link sulfo-NHS-LC-biotinylation kit (in the BLI assay only)
Kd [2]: 48 nM
koff [2]: 0.0194 s⁻¹
kon [2]: 420000 M⁻¹ s⁻¹
Kd [1]: 59 nM
koff [1]: 0.0067 s⁻¹
kon [1]: 115000 M⁻¹ s⁻¹
Kd (R160A Izumo1_(22-254)): 730 nM
koff (R160A Izumo1_(22-254)): 0.0563 s⁻¹
kon (R160A Izumo1_(22-254)): 78000 M⁻¹ s⁻¹
Kd (R160E Izumo1_(22-254)): 2200 nM
koff (R160E Izumo1_(22-254)): 0.0512 s⁻¹
kon (R160E Izumo1_(22-254)): 32000 M⁻¹ s⁻¹
Kd (E71A Izumo1_(22-254)): 96 nM
koff (E71A Izumo1_(22-254)): 0.0137 s⁻¹
kon (E71A Izumo1_(22-254)): 143000 M⁻¹ s⁻¹
Kd (E71K Izumo1_(22-254)): 119 nM
koff (E71K Izumo1_(22-254)): 0.0195 s⁻¹
kon (E71K Izumo1_(22-254)): 165000 M⁻¹ s⁻¹
Kd (D72A Izumo1_(22-254)): 71 nM
koff (D72A Izumo1_(22-254)): 0.0126 s⁻¹
kon (D72A Izumo1_(22-254)): 178000 M⁻¹ s⁻¹
Kd (Q130A Izumo1_(22-254)): 56 nM
koff (Q130A Izumo1_(22-254)): 0.0068 s⁻¹
kon (Q130A Izumo1_(22-254)): 127000 M⁻¹ s⁻¹
Kd (H157A Izumo1_(22-254)): 1800 nM
koff (H157A Izumo1_(22-254)): 0.079 s⁻¹
kon (H157A Izumo1_(22-254)): 51000 M⁻¹ s⁻¹

B4: W62A Juno_(20-228) (domain or fragment, human, UniProt A6ND01-1 20-228, looked up)
chain: B1 chain with A26E, W43A
modifications: biotinylated with the EZ link sulfo-NHS-LC-biotinylation kit (BLI)
Kd [1]: 361 nM
koff [1]: 0.0412 s⁻¹
kon [1]: 114000 M⁻¹ s⁻¹

B5: L81A Juno_(20-228) (domain or fragment, human, UniProt A6ND01-1 20-228, looked up)
chain: B1 chain with A26E, L62A
modifications: biotinylated with the EZ link sulfo-NHS-LC-biotinylation kit (BLI)
Kd [1]: 9100 nM
koff [1]: 0.349 s⁻¹
kon [1]: 40000 M⁻¹ s⁻¹

B6: E45K Juno_(20-228) (domain or fragment, human, UniProt A6ND01-1 20-228, looked up)
chain: B1 chain with A26K
modifications: biotinylated with the EZ link sulfo-NHS-LC-biotinylation kit (in the BLI assay only)
Kd [1]: 2800 nM
koff [1]: 0.0624 s⁻¹
kon [1]: 23000 M⁻¹ s⁻¹

B7: K163A Juno_(20-228) (domain or fragment, human, UniProt A6ND01-1 20-228, looked up)
chain: B1 chain with A26E, K144A
modifications: biotinylated with the EZ link sulfo-NHS-LC-biotinylation kit (BLI)
Kd [1]: 97 nM
koff [1]: 0.0133 s⁻¹
kon [1]: 138000 M⁻¹ s⁻¹
